Consider 8 sequences from the supplement of paper PMC10065799, “High-throughput profiling of sequence recognition by tyrosine kinases and SH2 domains using bacterial peptide display” (eLife, 2023).

One series relates to AncSZ. The series is described as follows: phosphorylation enrichment, bacterial display (enrichment ratio); higher = better substrate or ligand; peptides without Tyr show the background.
The target of a further series is EPHB1 (UniProt P54762). The series is described as above.
The target in another series is EPHB2 (UniProt P29323). The description is as above.
A further series has as its target FGFR1 (UniProt P11362). Described as above.
Another series concerns the target FGFR3 (UniProt P22607). The series is described as above.
The subject of a further series is Fer (mouse). The description is as above.
Another series addresses Fes (UniProt P07332). The series is described as above.
Another series concerns the target Fyn (UniProt P06241). The series is described as above.
In another series the target is Hck (UniProt P08631). The series is described as above.
A further series addresses Jak2 (UniProt O60674). The series is described as above.
The next series deals with MERTK (UniProt Q12866). The series is described as above.
For a further series, the system named is c-Abl (mouse). The description is as above.
The test system of the next series is c-Src. Described as above.
Another series has as its target Grb2 SH2 (UniProt P62993). In words: SH2 binding enrichment of the phosphorylated peptide, bacterial display (enrichment ratio); higher = better substrate or ligand; peptides without Tyr show the background.
Another series concerns the target SHP2-C SH2. The series is described as above.
The next series addresses c-Src SH2. The series is described as above.
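Wherever SH2 binding enrichment of the phosphorylated peptide, bacterial display is given: peptide library displayed on the E. coli surface as eCPX fusions, selected cells deep-sequenced, score is each peptide's frequency after selection divided by its frequency in the input.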
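Wherever phosphorylation enrichment, bacterial display is given: 11-residue human phosphosite peptides and single-mutation variants displayed on the E. coli surface, counted by deep sequencing, each peptide's frequency after selection divided by its frequency in the unselected input library; frequency after pTyr selection over input frequency; kinase dosed for 20-30% of maximal phosphorylation in three min.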

Chain of FGFR1 (P11362 whole entry, looked up): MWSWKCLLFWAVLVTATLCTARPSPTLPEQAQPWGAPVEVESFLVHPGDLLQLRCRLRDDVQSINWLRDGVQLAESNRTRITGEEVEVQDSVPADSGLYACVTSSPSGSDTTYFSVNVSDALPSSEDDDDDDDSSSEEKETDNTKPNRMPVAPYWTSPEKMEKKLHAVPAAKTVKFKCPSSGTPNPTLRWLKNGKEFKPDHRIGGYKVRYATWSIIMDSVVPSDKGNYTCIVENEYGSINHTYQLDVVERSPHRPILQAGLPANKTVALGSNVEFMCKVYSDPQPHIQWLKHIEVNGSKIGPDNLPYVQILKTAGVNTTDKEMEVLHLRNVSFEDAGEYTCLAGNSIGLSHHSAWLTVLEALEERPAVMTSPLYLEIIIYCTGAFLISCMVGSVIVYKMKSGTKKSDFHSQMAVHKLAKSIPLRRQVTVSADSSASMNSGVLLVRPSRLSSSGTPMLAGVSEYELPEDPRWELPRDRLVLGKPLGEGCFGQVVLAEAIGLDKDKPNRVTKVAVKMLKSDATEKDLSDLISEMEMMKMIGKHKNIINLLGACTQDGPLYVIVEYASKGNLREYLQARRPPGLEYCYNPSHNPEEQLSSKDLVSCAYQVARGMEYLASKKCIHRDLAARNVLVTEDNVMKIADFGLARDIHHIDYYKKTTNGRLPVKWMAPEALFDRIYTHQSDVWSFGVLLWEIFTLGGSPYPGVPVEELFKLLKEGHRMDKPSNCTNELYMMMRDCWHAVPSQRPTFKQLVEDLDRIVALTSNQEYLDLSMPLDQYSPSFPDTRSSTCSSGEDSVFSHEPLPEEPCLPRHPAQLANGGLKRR
Chain of Grb2 SH2 (P62993 whole entry, looked up): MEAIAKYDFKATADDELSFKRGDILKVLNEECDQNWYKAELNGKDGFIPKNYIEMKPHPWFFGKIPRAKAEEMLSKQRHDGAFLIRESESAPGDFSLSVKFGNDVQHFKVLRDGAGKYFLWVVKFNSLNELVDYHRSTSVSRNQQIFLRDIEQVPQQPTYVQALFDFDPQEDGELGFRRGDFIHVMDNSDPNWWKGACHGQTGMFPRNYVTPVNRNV
Chain of Hck (P08631 whole entry, looked up): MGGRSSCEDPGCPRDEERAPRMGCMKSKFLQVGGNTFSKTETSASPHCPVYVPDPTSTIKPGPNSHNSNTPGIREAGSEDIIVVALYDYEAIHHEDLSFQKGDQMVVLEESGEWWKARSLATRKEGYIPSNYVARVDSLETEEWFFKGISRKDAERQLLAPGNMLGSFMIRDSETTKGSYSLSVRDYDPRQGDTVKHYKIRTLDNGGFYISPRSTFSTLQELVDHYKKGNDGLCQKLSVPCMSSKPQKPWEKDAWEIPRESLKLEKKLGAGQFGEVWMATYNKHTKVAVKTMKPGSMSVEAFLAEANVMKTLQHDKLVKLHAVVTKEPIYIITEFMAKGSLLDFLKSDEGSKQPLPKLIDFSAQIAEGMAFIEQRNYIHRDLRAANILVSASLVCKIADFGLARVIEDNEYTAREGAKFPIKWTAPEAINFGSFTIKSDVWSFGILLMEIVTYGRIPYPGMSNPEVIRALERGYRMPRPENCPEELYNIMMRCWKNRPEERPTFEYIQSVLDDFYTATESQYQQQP
Chain of Fyn (P06241 whole entry, looked up): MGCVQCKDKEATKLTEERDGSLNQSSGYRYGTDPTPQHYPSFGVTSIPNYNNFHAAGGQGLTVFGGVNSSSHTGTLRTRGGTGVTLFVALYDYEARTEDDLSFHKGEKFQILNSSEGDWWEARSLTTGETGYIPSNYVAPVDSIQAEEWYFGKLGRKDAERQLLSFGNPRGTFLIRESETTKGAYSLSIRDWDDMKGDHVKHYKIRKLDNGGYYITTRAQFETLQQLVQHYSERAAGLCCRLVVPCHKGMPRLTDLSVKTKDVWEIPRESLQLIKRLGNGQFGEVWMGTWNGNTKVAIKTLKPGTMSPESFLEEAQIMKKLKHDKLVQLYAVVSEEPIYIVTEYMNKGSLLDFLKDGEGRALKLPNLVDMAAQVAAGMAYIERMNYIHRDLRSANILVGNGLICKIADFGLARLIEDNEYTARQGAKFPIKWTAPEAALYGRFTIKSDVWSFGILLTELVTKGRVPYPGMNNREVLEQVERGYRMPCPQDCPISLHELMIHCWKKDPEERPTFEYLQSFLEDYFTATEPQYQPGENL
Chain of FGFR3 (P22607 whole entry, looked up): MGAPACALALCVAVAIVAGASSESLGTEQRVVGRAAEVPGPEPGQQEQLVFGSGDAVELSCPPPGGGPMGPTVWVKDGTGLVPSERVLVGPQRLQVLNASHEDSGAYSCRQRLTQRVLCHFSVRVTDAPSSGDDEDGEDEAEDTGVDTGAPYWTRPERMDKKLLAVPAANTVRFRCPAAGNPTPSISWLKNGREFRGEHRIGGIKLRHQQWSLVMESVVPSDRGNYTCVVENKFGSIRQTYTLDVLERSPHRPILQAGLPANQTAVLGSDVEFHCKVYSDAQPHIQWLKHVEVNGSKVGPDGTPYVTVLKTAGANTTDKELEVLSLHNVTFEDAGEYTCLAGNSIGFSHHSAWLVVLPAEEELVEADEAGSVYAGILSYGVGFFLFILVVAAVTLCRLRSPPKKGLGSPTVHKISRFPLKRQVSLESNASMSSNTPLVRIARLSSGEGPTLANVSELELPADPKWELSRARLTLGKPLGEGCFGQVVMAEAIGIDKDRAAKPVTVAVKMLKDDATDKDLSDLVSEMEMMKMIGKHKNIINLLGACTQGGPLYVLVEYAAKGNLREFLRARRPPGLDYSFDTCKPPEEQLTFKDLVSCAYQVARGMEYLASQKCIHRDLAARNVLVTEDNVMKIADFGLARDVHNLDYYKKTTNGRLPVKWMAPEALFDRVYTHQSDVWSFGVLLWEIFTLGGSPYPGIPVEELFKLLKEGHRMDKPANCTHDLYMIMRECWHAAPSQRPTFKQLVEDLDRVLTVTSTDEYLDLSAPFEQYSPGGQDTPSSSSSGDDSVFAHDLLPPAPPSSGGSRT
Chain of MERTK (Q12866 whole entry, looked up): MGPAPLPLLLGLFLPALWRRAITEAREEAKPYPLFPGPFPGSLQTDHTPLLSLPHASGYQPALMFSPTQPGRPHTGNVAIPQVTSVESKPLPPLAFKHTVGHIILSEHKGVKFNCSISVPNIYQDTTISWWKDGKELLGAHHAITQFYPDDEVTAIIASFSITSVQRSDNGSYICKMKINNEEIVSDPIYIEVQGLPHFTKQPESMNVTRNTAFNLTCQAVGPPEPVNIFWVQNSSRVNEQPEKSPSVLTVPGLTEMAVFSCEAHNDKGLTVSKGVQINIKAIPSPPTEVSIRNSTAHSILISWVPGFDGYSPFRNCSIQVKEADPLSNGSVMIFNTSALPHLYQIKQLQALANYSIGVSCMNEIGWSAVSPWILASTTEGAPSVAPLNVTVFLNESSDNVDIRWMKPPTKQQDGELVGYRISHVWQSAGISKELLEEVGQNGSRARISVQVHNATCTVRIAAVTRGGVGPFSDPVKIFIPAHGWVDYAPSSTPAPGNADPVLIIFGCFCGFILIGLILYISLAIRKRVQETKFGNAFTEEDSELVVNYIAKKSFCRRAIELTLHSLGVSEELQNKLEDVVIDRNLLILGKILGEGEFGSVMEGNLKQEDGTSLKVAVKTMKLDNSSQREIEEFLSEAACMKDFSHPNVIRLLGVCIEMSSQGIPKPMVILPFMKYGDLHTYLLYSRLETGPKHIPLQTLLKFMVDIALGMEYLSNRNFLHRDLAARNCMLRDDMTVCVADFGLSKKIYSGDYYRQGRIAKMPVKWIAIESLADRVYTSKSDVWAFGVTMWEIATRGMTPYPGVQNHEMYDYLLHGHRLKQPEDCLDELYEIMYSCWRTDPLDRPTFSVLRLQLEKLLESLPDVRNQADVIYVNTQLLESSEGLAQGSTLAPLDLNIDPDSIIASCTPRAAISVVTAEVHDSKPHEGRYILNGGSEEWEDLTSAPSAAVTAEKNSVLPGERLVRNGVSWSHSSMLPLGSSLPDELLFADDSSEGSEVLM
Chain of EPHB1 (P54762 whole entry, looked up): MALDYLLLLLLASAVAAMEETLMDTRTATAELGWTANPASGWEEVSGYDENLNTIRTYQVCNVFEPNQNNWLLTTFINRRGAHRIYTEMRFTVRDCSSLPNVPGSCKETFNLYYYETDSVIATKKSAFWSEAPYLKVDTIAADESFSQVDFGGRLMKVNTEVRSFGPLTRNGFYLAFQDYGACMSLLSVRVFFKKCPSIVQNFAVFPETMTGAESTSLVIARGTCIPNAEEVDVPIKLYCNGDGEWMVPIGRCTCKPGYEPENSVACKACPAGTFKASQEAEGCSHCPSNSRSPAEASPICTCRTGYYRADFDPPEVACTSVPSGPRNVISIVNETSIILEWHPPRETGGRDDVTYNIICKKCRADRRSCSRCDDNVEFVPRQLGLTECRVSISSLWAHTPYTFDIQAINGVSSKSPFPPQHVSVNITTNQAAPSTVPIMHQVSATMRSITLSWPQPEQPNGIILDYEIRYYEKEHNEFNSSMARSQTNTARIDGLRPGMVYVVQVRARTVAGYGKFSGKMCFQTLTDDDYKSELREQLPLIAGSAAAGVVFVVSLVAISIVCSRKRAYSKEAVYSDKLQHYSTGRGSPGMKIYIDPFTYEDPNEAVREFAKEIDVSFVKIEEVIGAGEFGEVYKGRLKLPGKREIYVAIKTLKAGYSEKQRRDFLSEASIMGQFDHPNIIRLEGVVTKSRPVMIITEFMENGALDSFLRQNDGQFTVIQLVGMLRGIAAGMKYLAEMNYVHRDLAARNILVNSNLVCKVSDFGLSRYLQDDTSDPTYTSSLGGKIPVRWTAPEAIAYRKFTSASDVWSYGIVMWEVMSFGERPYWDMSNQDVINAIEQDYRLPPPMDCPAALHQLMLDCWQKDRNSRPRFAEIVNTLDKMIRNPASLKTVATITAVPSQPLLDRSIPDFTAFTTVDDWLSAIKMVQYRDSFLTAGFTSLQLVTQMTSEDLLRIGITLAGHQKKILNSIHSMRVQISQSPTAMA

On to PQGVRYIFTID [DCX_Y103_YF], for which the phosphorylation enrichment in the series on AncSZ turned out to be 1.68; with EPHB1, 0.587; with EPHB2, 0.524; with FGFR1, 0.61; with FGFR3 it was 0.96; in the series on Fer (mouse), 0.826. Besides, the phosphorylation enrichment came out at 3.66 with Fes; 0.617 with Fyn; 0.714 in the series with Hck; 1.89 with Jak2; 0.664 with MERTK; 1.38 with c-Abl (mouse). In addition, the phosphorylation enrichment in the series with c-Src came to 0.587. Further, the values for the SH2 binding enrichment with Grb2 SH2, in the series with SHP2-C SH2 and with c-Src SH2 were 0.602, 1.09 and 0.654, respectively.

Take PRARTYCYKQE [KLHDC9_Y175_S171R]: the phosphorylation enrichment in the series with AncSZ came out at 0.847; with EPHB1, 0.467; in the series with EPHB2, 0.574; with FGFR1 it was 0.497; in the series with FGFR3 it was 0.557; in the series with Fer (mouse), 0.716. The phosphorylation enrichment with Fes came to 1.01; with Fyn, 0.527; with Hck it was 0.435; with Jak2, 0.981; with MERTK, 0.483; in the series with c-Abl (mouse) it was 0.91. In addition, in the series on c-Src, the phosphorylation enrichment turned out to be 0.667. For the same sequence, the SH2 binding enrichment in the series with Grb2 SH2 amounted to 1.27; with SHP2-C SH2, 0.834; with c-Src SH2 it was 0.661.

With PRQRRYVFFFS [PTEN_Y174_S170R_YF], the phosphorylation enrichment in the series with AncSZ came to 0.739; with EPHB1, 0.606; with EPHB2, 0.343; in the series with FGFR1 it was 0.62; with FGFR3 it was 0.715; in the series with Fer (mouse) it was 0.555. Besides, the phosphorylation enrichment was found to be 0.605 in the series with Fes; 0.575 with Fyn; 0.446 with Hck; 0.262 in the series with Jak2; 0.574 with MERTK; 0.385 in the series with c-Abl (mouse). Besides, the phosphorylation enrichment with c-Src is 0.597. Moreover, the SH2 binding enrichment is 0.861 with Grb2 SH2, 0.453 with SHP2-C SH2 and 0.453 with c-Src SH2.

For the sequence PSELFYSKIGP [SMG1_Y2254_YF], the phosphorylation enrichment with AncSZ is 1.21; in the series with EPHB1, 2.31; with EPHB2, 2.08; with FGFR1, 5.34; in the series with FGFR3, 3.84; in the series on Fer (mouse) it was 10.4. The phosphorylation enrichment came out at 1.2 with Fes; 3.97 in the series with Fyn; 10.6 with Hck; 2.1 with Jak2; 15.5 in the series with MERTK; 2.46 with c-Abl (mouse). For the same sequence, the phosphorylation enrichment in the series on c-Src turned out to be 5.2. The SH2 binding enrichment in the series with Grb2 SH2 worked out at 1.03; with SHP2-C SH2, 2.31; in the series with c-Src SH2, 4.64.

Regarding PSSNLYFRCLT [CNGA3_Y168_W171C_YF], the phosphorylation enrichment in the series on AncSZ came out at 1.5; with EPHB1 it was 0.828; with EPHB2 it was 0.809; with FGFR1, 1.19; in the series with FGFR3 it was 1.03; with Fer (mouse), 0.694. The phosphorylation enrichment in the series with Fes is 1.63; in the series with Fyn, 0.707; with Hck it was 0.88; with Jak2 it was 1.66; with MERTK it was 0.808; with c-Abl (mouse), 0.967. In addition, the phosphorylation enrichment in the series on c-Src is 0.48. The figures for the SH2 binding enrichment in the series with Grb2 SH2, in the series with SHP2-C SH2 and with c-Src SH2 were 0.75, 0.636 and 0.379, respectively.

Regarding PSSNLYYRCLT [CNGA3_Y168_W171C], the phosphorylation enrichment with AncSZ stood at 1.68; in the series with EPHB1, 1.23; with EPHB2, 0.78; in the series with FGFR1, 1.9; with FGFR3 it was 1.87; with Fer (mouse) it was 0.655. Also, the phosphorylation enrichment in the series with Fes was found to be 1.06; with Fyn, 0.883; with Hck, 1.89; in the series with Jak2, 2.31; in the series with MERTK it was 3.88; with c-Abl (mouse), 0.742. The phosphorylation enrichment with c-Src came to 1.05. In addition, the values for the SH2 binding enrichment in the series with Grb2 SH2, in the series with SHP2-C SH2 and in the series with c-Src SH2 were 0.936, 0.629 and 0.484, respectively.

Regarding PSSRDYKDNIK [PIGN_Y227_H229D], the phosphorylation enrichment in the series with AncSZ was found to be 0.556; with EPHB1, 0.595; with EPHB2 it was 0.467; with FGFR1 it was 0.614; with FGFR3 it was 0.614; in the series on Fer (mouse) it was 0.407. Besides, the phosphorylation enrichment was determined as 0.649 with Fes; 0.496 in the series with Fyn; 0.381 with Hck; 0.9 in the series with Jak2; 0.727 in the series with MERTK; 0.47 with c-Abl (mouse). Besides, the phosphorylation enrichment in the series with c-Src was 0.569. Besides, the SH2 binding enrichment is 1.16 with Grb2 SH2, 0.449 with SHP2-C SH2 and 0.394 with c-Src SH2.

For the sequence PVDNLYAEPAV [PRPS1_Y146], the phosphorylation enrichment in the series on AncSZ was determined as 2.52; in the series with EPHB1, 5.2; in the series with EPHB2, 9.31; with FGFR1, 0.61; in the series with FGFR3 it was 0.986; in the series with Fer (mouse) it was 4.64. The phosphorylation enrichment with Fes turned out to be 1.31; with Fyn, 1.96; with Hck, 3.99; with Jak2, 1.02; in the series with MERTK, 6.34; with c-Abl (mouse), 8.54. Moreover, the phosphorylation enrichment in the series on c-Src is 1.56. Also, the SH2 binding enrichment with Grb2 SH2 came to 1.04; with SHP2-C SH2, 0.63; in the series with c-Src SH2 it was 0.671.
